Experimental data reported in patent publication US20180222956A1.
Like-named read-outs stand apart in the source and are kept apart here.

Tests used:
Assay in all cases: cell-based or functional assay
[1] = biological target: Human TGFβ3 (human) (UniProt P10600)
[2] = biological target: Human TGFβ1 (human) (UniProt P01137)
[3] = biological target: Human TGFβ3 (human) (UniProt P10600); remark: listed apart in the source
[4] = biological target: Human TGFβ1 (human) (UniProt P01137); remark: listed apart in the source

Human TGFβ3 (human), sequence (P10600 301-412 limits assumed): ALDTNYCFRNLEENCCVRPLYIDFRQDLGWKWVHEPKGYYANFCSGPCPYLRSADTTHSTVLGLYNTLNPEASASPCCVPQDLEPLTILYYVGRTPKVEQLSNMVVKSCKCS
hTβRIIshort(23-159)-hG2Fc (Fc fusion), sequence (chain): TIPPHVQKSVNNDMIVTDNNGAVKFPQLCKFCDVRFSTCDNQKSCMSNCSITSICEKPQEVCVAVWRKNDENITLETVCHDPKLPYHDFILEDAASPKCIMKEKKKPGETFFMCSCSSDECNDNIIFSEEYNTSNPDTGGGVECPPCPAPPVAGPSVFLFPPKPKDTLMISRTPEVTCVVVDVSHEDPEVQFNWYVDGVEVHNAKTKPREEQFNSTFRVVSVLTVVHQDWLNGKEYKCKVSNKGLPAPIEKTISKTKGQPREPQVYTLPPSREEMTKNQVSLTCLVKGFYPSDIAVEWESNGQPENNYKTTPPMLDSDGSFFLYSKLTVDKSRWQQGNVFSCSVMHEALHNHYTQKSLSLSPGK
Human TGFβ1 (human), sequence (P01137 279-390 limits assumed): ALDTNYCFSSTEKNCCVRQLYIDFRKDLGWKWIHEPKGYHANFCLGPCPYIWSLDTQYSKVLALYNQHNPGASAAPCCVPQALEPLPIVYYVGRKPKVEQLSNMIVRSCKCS
hTβRIIshort(29-159)-hG2Fc (Fc fusion), sequence (chain): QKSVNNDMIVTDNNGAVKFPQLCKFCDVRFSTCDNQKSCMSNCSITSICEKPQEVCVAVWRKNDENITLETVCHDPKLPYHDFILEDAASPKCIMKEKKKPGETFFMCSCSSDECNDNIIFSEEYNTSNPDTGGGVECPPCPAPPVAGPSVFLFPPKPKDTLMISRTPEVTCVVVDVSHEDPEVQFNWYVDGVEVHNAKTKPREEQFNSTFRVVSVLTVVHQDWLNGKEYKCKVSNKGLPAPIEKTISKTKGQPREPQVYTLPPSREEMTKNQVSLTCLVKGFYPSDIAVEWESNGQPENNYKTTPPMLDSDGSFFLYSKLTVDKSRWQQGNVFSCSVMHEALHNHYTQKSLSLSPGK
hTβRIIshort(35-159)-hG2Fc (Fc fusion), sequence (chain): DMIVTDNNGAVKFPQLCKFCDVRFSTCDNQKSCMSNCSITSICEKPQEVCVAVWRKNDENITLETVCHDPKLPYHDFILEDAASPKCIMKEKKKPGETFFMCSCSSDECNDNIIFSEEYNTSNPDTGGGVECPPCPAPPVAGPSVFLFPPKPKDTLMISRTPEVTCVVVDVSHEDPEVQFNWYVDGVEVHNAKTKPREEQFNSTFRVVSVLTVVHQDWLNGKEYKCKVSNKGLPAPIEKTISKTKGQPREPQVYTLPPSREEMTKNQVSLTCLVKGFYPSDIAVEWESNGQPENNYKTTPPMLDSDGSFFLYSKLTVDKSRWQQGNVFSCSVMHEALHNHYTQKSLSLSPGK
hTβRIIshort(23-153)-hG2Fc (Fc fusion), sequence (chain): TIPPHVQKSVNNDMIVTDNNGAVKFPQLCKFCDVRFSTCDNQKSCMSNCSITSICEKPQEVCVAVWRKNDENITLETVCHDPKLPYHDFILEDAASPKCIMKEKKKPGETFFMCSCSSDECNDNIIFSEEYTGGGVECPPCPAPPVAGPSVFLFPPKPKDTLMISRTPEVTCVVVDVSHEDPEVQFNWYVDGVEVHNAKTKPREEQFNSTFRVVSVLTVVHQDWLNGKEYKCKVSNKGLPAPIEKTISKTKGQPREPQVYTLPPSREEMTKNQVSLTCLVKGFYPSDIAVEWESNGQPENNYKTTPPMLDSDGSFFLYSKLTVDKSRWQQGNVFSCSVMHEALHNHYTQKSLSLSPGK

Row | Substance | IC50 (nM), A549 CAGA12 reporter gene assay, hTGFβ3 (270 pg/ml) [1] | IC50 (nM), A549 CAGA12 reporter gene assay, hTGFβ1 (640 pg/ml) [2] | IC50 (nM), A549 CAGA12 reporter gene assay, hTGFβ3 (270 pg/ml) [3] | IC50 (nM), A549 CAGA12 reporter gene assay, hTGFβ1 (640 pg/ml) [4]
1 | hTβRIIshort(23-159)-hG2Fc (Fc fusion) | 0.37 nM | 0.52 nM | 0.14 nM | 1.73 nM
2 | hTβRIIshort(35-159)-hG2Fc (Fc fusion) | > 7.5 nM | 2.51 nM |  | 
3 | hTβRIIshort(23-153/N70D)-hG2Fc (Fc fusion) |  |  |  | 17.7 nM
4 | hTβRIIshort(23-153)-hG2Fc (Fc fusion) |  |  | 0.14 nM | 2.62 nM

Other lines, results leading:

Row | IC50 (nM), A549 CAGA12 reporter gene assay, hTGFβ3 (270 pg/ml) [1] | IC50 (nM), A549 CAGA12 reporter gene assay, hTGFβ1 (640 pg/ml) [2] | IC50 (nM), A549 CAGA12 reporter gene assay, hTGFβ3 (270 pg/ml) [3] | IC50 (nM), A549 CAGA12 reporter gene assay, hTGFβ1 (640 pg/ml) [4] | Substance
5 | > 7.5 nM | 2.05 nM |  |  | hTβRIIshort(29-159)-hG2Fc (Fc fusion)
6 |  |  |  | > 73.6 nM | hTβRIIshort(23-159/D110K)-hG2Fc (Fc fusion)
